The labels stand for the following.
B1: SNX8 (parent)
chain: RMVPALPPKRMLGADREFIEARRR
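Further: lentivirally expressed fusions sorted by FACS into six bins by GFP to DsRed ratio, PSI derived from sequencing read proportions per bin multiplied by bin number.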

Variants of B1 are the subject of the series. Briefly: protein stability index of a GFP-peptide fusion (GPS, HEK-293T) (PSI 1-6); higher = more stable. As to conditions: c terminus: a fixed tail appended.
In the case of RMVPALPPKRMLGADRKFIEARRR [E17K], the protein stability index was 4.19.

As to RMVPALPPKRMLGADRGFIEARRR [E17G], the protein stability index was found to be 3.97.

With RMVPALPPKRMLGADWEFIEARRR [R16W], the protein stability index was 2.42.

On to RMVPALPPKRMLGADGEFIEARRR [R16G], for which the protein stability index was 3.88.

For RMVPALPPKRMLGADLEFIEARRR [R16L], the protein stability index was found to be 2.65.

In the case of RMVPALPPKRMLGADTEFIEARRR [R16T], the protein stability index is 3.56.

Take RMVPALPPDRMLGADREFIEARRR [K9D]: the protein stability index was 4.12.

On to RMVPALPPMRMLGADREFIEARRR [K9M], for which the protein stability index is 3.81.

In the case of RMVPALPPPRMLGADREFIEARRR [K9P], the protein stability index amounted to 4.37.

Consider RMVPALFPKRMLGADREFIEARRR [P7F], for which the protein stability index worked out at 3.4.

As for RMVPALRPKRMLGADREFIEARRR [P7R], the protein stability index is 3.76.

Take RMVPALIPKRMLGADREFIEARRR [P7I]: the protein stability index is 3.62.

Consider RMVPALPPKRMLGDDREFIEARRR [A14D], for which the protein stability index was found to be 4.19.

On to RMVPALPPKRMLGMDREFIEARRR [A14M], for which the protein stability index was 3.24.

For RMVPALPPKRMLGVDREFIEARRR [A14V], the protein stability index was determined as 3.02.

Turning to RMVPALPPKRMLGADREFIEARAR [R23A], the protein stability index was determined as 2.54.

In the case of RMVPALPPKRMLGADREFIEARNR [R23N], the protein stability index is 3.94.

Take PMVPALPPKRMLGADREFIEARRR [R1P]: the protein stability index was 3.83.

Consider AMVPALPPKRMLGADREFIEARRR [R1A], for which the protein stability index came out at 3.86.

For SMVPALPPKRMLGADREFIEARRR [R1S], the protein stability index is 3.8.

For the variant WMVPALPPKRMLGADREFIEARRR [R1W], the protein stability index was determined as 1.94.

Turning to RMVPALPPKRMLGAIREFIEARRR [D15I], the protein stability index stood at 1.91.

RMVPALPPKRMLGALREFIEARRR [D15L]: the protein stability index worked out at 1.52.

In the case of RMVPALPPKRMLGACREFIEARRR [D15C], the protein stability index is 2.42.

Turning to RMVPALPPKRMLGAEREFIEARRR [D15E], the protein stability index is 3.52.

With RMVPALPPKRMLGAYREFIEARRR [D15Y], the protein stability index turned out to be 2.64.

Regarding RMVPALPPKRMLGAWREFIEARRR [D15W], the protein stability index stood at 2.5.

Regarding RMVPGLPPKRMLGADREFIEARRR [A5G], the protein stability index stood at 3.84.

On to RMVPHLPPKRMLGADREFIEARRR [A5H], for which the protein stability index turned out to be 3.75.

In the case of RMVPWLPPKRMLGADREFIEARRR [A5W], the protein stability index was 3.06.

On to RMVPCLPPKRMLGADREFIEARRR [A5C], for which the protein stability index was found to be 3.85.

Take RMVPLLPPKRMLGADREFIEARRR [A5L]: the protein stability index is 4.

On to RMVPSLPPKRMLGADREFIEARRR [A5S], for which the protein stability index is 4.05.

In the case of RMVPKLPPKRMLGADREFIEARRR [A5K], the protein stability index was found to be 3.77.

For RMVPYLPPKRMLGADREFIEARRR [A5Y], the protein stability index came to 3.12.

Regarding RMVPRLPPKRMLGADREFIEARRR [A5R], the protein stability index was determined as 4.31.

In the case of RMVSALPPKRMLGADREFIEARRR [P4S], the protein stability index was determined as 3.69.

With RMVIALPPKRMLGADREFIEARRR [P4I], the protein stability index is 2.52.

Take RMVDALPPKRMLGADREFIEARRR [P4D]: the protein stability index was 3.57.

Regarding RMVGALPPKRMLGADREFIEARRR [P4G], the protein stability index amounted to 3.87.

Turning to RMVVALPPKRMLGADREFIEARRR [P4V], the protein stability index stood at 3.58.

In the case of RMVPALPPKTMLGADREFIEARRR [R10T], the protein stability index is 4.24.

Consider RMVPALPPKDMLGADREFIEARRR [R10D], for which the protein stability index was determined as 4.61.

For the variant RMVPALPPKGMLGADREFIEARRR [R10G], the protein stability index turned out to be 4.16.

On to RMVPALPPKSMLGADREFIEARRR [R10S], for which the protein stability index is 4.05.

RMVPALPPKFMLGADREFIEARRR [R10F]: the protein stability index turned out to be 3.39.

RMVPALPPKAMLGADREFIEARRR [R10A]: the protein stability index was found to be 4.23.

For RMVPALPPKRMRGADREFIEARRR [L12R], the protein stability index was found to be 4.19.

Turning to RMVPALPPKRMWGADREFIEARRR [L12W], the protein stability index is 4.05.

As to RMVPALPPKRMHGADREFIEARRR [L12H], the protein stability index amounted to 4.

As for RMVPALPPKRMPGADREFIEARRR [L12P], the protein stability index is 4.18.

With RMVPALPPKRMSGADREFIEARRR [L12S], the protein stability index was found to be 4.41.

RMVPALPPKRELGADREFIEARRR [M11E]: the protein stability index came to 3.91.

Turning to RMVPALPPKRTLGADREFIEARRR [M11T], the protein stability index was found to be 4.27.

RMVPALPPKRPLGADREFIEARRR [M11P]: the protein stability index turned out to be 4.42.

On to RMVPALPPKRSLGADREFIEARRR [M11S], for which the protein stability index is 4.23.

As to RMVPALPPKRKLGADREFIEARRR [M11K], the protein stability index came out at 3.94.

As to RMVPALPPKRVLGADREFIEARRR [M11V], the protein stability index came out at 3.37.

With RMVPALPPKRMLQADREFIEARRR [G13Q], the protein stability index was 3.25.

Regarding RMVPALPPKRMLRADREFIEARRR [G13R], the protein stability index came out at 4.06.

For the variant RMVPALPPKRMLNADREFIEARRR [G13N], the protein stability index worked out at 3.29.

Turning to RMVPALPPKRMLWADREFIEARRR [G13W], the protein stability index came out at 2.17.

Regarding RMVPALPPKRMLDADREFIEARRR [G13D], the protein stability index came out at 3.79.

For RMVPALPPKRMLFADREFIEARRR [G13F], the protein stability index was 2.22.

With RMVPALPPKRMLHADREFIEARRR [G13H], the protein stability index stood at 3.37.

In the case of RMVPALPPKRMLGADREYIEARRR [F18Y], the protein stability index stood at 4.07.

Regarding RMVPALPPKRMLGADRECIEARRR [F18C], the protein stability index was 4.45.

With RMVPALPPKRMLGADRENIEARRR [F18N], the protein stability index worked out at 4.45.

On to RMVPALPPKRMLGADREFIEAMRR [R22M], for which the protein stability index was 3.16.

In the case of RMVPALPPKRMLGADREFIEAWRR [R22W], the protein stability index turned out to be 2.73.

In the case of RMVPALPPKRMLGADREFIEAGRR [R22G], the protein stability index came out at 4.02.

As to RMVPALPPKRMLGADREFIEAARR [R22A], the protein stability index came out at 4.33.

On to RMSPALPPKRMLGADREFIEARRR [V3S], for which the protein stability index came out at 3.88.

As to RMFPALPPKRMLGADREFIEARRR [V3F], the protein stability index was 2.99.

For the variant RMDPALPPKRMLGADREFIEARRR [V3D], the protein stability index was 4.63.

In the case of RMHPALPPKRMLGADREFIEARRR [V3H], the protein stability index was 3.54.

With RMLPALPPKRMLGADREFIEARRR [V3L], the protein stability index amounted to 1.85.

In the case of RMTPALPPKRMLGADREFIEARRR [V3T], the protein stability index worked out at 4.1.

For the variant RMVPALPPKRMLGADREFAEARRR [I19A], the protein stability index is 4.23.

Turning to RMVPALPLKRMLGADREFIEARRR [P8L], the protein stability index came to 3.17.

RMVPALPAKRMLGADREFIEARRR [P8A]: the protein stability index is 4.23.

On to RMVPALPKKRMLGADREFIEARRR [P8K], for which the protein stability index is 3.87.

RMVPALPIKRMLGADREFIEARRR [P8I]: the protein stability index was determined as 3.02.

With RMVPALPNKRMLGADREFIEARRR [P8N], the protein stability index was 3.79.

Turning to RMVPALPMKRMLGADREFIEARRR [P8M], the protein stability index amounted to 3.06.

On to RMVPALPCKRMLGADREFIEARRR [P8C], for which the protein stability index amounted to 2.77.

Consider RMVPALPPKRMLGADREFIWARRR [E20W], for which the protein stability index was determined as 3.26.

Take RMVPALPPKRMLGADREFIGARRR [E20G]: the protein stability index came to 4.02.

In the case of RMVPALPPKRMLGADREFISARRR [E20S], the protein stability index stood at 4.

Turning to RMVPALPPKRMLGADREFIIARRR [E20I], the protein stability index worked out at 3.27.

In the case of RMVPALPPKRMLGADREFIMARRR [E20M], the protein stability index came to 3.39.

RMVPALPPKRMLGADREFIDARRR [E20D]: the protein stability index amounted to 4.31.

As to RMVPALPPKRMLGADREFIVARRR [E20V], the protein stability index came out at 4.11.

With RMVPALPPKRMLGADREFIEARRI [R24I], the protein stability index is 3.11.

The values above are taken from the supplement of paper PMC10567573.
